Test results as given in paper PMC9753473 (The EMBO Journal, 2022).

B1: Chlamydomonas reinhardtii IFT74(128‐C) (domain or fragment, UniProt Q6RCE1 128-641, looked up)
chain: GVGRQVLDKNYFMNELRQKRMEIAQVTSNMKSDLEALERKQAQYNSMDKRASDLSKEVKILQEALADYNTVLDKVGSQAPVYVIQQEFAALKDRNEQQRKRVDEVLTERLNLESKAKQAESKMSEIQASMDQRLNSMPPSQRNEYTTLVAEQQQLQADSKRFEEVLDELDKALQASEGELARNPFKQRSLQLQEQIRALTEKKYELTEEERQSKRSPEELRADLMAKIKRDNTEVEQMTQQIRELQDQIKKMEERVKSLGGATSGAAAAEEKANREKFEELLAKERDLNNFMDGFPSRKAAKMQEKQQKEDGIVGVLEKMVKMQGIIGSNLPSQKKYKEMQDELEYKKMQLENTQTTQERLKEELTMRRTELEKIDTLEDKIKLELTQLAERQEAMEKEMGEFGSVEDIQRKANAARERMEGLRSVLLKRKDLLRSIVAERGLKFQAKRAQLQDHNLQVQLEKMEAKLKNLSAGVFEMDEFIKAKESETNYRQLASNIAALVDDLNVHVKKAVV

Experiments:
[1] = target: T1, Chlamydomonas reinhardtii IFT81/74(128‐C) heterodimer (Chlamydomonas reinhardtii, UniProt Q68RJ5 1-683; Q6RCE1 128-641); test: cross-linking
T1 sequence (looked up) 1: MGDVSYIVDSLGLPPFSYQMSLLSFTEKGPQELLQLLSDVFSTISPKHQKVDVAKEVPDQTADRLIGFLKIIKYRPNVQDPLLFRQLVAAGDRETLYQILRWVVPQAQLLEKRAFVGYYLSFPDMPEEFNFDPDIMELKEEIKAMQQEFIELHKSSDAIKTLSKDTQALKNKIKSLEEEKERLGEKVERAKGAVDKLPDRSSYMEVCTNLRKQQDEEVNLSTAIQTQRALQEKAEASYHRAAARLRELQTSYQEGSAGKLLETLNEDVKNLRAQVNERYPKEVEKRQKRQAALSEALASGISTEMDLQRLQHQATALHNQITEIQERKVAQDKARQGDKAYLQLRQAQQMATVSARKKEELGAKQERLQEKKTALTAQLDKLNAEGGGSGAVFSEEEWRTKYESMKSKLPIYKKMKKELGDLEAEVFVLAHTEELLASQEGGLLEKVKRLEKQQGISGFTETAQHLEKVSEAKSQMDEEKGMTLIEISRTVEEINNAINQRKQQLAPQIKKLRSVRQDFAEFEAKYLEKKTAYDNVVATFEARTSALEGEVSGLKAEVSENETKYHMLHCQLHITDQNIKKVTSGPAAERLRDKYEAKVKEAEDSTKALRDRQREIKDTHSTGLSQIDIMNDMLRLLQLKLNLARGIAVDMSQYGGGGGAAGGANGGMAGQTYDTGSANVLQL
T1 sequence (looked up) 2: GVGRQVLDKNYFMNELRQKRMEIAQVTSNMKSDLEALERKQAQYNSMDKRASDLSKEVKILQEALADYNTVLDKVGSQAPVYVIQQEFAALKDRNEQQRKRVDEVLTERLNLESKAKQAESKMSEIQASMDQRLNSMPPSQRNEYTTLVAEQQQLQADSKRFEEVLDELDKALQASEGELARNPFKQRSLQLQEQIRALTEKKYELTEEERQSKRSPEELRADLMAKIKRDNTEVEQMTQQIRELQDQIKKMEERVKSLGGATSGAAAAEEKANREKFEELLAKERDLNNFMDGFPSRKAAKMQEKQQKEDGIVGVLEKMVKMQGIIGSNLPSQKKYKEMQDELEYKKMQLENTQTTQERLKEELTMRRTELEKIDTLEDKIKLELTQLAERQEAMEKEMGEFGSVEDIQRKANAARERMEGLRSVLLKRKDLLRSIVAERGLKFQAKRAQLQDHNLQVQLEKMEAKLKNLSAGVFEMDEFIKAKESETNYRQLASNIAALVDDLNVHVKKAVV

[2] = target: T2, Chlamydomonas reinhardtii IFT81 (Chlamydomonas reinhardtii, UniProt Q68RJ5 1-683); test: cross-linking
T2 sequence (looked up): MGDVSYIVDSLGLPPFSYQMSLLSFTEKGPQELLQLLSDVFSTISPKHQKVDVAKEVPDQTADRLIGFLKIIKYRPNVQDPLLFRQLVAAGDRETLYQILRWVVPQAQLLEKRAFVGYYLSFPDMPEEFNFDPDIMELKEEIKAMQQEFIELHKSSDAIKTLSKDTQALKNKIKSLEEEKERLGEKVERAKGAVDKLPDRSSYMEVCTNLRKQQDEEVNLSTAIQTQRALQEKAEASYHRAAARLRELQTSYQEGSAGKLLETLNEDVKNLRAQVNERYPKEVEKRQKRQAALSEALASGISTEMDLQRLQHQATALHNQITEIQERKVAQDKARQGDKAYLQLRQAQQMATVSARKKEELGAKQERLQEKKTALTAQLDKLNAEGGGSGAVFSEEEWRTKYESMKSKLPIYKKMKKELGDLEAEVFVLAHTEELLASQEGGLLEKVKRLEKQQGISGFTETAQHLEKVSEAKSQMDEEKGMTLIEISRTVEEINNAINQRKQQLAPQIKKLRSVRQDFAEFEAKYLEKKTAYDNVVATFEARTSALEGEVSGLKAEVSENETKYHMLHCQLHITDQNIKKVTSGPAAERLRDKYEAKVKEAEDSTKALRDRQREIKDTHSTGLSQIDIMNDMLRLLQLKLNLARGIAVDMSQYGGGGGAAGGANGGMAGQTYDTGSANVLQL

[3] = target: B1; test: cross-linking
[4] = target: T3, CrIFT172(1–968) (Chlamydomonas reinhardtii, UniProt Q5DM57 1-968); test: pull-down
T3 sequence (looked up): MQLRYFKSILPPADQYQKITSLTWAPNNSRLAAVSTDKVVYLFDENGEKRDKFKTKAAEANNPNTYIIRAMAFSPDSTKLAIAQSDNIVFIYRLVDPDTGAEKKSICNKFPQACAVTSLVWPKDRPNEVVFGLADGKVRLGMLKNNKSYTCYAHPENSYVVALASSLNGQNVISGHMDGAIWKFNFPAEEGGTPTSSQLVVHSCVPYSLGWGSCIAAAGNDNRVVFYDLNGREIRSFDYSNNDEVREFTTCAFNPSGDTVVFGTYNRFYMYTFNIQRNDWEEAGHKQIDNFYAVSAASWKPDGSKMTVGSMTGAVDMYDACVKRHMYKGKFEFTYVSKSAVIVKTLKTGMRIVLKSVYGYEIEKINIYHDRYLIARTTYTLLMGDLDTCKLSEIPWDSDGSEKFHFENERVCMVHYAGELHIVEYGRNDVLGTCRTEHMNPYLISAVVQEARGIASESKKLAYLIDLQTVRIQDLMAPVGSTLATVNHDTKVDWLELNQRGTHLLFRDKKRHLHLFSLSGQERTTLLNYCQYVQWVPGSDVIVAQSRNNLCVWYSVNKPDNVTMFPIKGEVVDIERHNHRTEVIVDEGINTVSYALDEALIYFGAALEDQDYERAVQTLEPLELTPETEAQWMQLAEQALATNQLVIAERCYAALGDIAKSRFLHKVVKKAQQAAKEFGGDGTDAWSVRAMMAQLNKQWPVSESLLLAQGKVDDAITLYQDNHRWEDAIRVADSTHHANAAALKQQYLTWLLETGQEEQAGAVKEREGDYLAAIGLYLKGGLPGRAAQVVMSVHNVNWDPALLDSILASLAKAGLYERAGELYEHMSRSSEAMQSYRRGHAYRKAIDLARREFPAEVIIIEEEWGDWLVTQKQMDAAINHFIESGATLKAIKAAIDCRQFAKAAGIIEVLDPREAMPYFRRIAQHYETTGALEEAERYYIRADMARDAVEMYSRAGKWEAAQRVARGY

Binder | binding result [1] | binding result [2] | also measured
Chlamydomonas reinhardtii IFT27 (natural protein) MVKKEVKPIDITATLRCKVAVVGEATVGKSALISMFTSKGSKFLKDYAMTSGVEVVVAPVTIPDTTVSVELFLLDTAGSDLYKEQISQYWNGVYYAILVFDVSSMESFESCKAWFELLKSARPDRERPLRAVLVANKTDLPPQRHQVRLDMAQDWATTNTLDFFDVSANPPGKDADAPFLSIATTFYRNYEDKVAAFQDACRNY | binds | – | –
Chlamydomonas reinhardtii IFT46(188–319) (domain or fragment, UniProt A2T2X4 188-319, looked up) QLRQLSKEAPGAKADMVGRLEHTDENKAKKIQQWIASINDIHKAKPAATVNYSKRMPEIEALMQEWPPEVETFLKTMHMPSGDVELDIKTYARLVCTLLDIPVYDDPVESLHVLFTLYLEFKNNPIFRQHME | – | binds | binding result [3]: binds
Chlamydomonas reinhardtii IFT25(1–136) (domain or fragment, UniProt B8LIX8 1-136, looked up) MKDYAREENGGLVVMASCSDERFPPENMLDGKDNTFWVTTGMFPQEFVLRLESCIRVSKITTLSLNVRKLAVEKCDQDKPDQFEKVFEVELANRGDRLQTEVHQVNIRAKYLKFILLQGHGEFATVNRVSVVGGDD | binds | – | –
GST‐tagged CrIFT57(1–234) (domain or fragment, Chlamydomonas reinhardtii, UniProt Q2XQY7 1-234, looked up) MSSKRGGRSSLAKAPEEAVNGEAFAPEASPPPPGDDGDAGGEDGGAPAPPPPPATKGGPVAVGRSLEIQTTPDVCMEMLADKLKLLNYEADFCRKKKPYRKPLSRLYFAVPLANSSEQFFYFTSLATWLLGLAGVELPAPKEFDDPNLTCQNILGAVKKLGFAPPSYHPTKLTVGNGKEVVGVLDGLVDFVLERRHHKYSRPAYGNDGQPEEGVQLDDEAEAAAMEGADELAMP | – | – | binding result [4]: binds
B1 | – | binds | –
